Test results taken from the DeepSol protein solubility set.

Assay: soluble on expression in E. coli; label from the status in PepcDB or PDB records

Soluble on expression in E. coli, not soluble:
MGSDKIHHHHHHMSLSRIHGDDDAFGARLDFAVNVAEAQPPTWLIQRLQSAVTDLAAYPHSSDLAAVTAMIARYHGVSEDHVLVLSGVSEGFAMLPQLKPENAVIIHPGFSEPDIVLTDAQIPVHRCILAPPFELSFENIPANADLVVIGNPTNPTGVVHSKELLAQLCAPGRTVVIDEAFLDIVGEQYSMIDQLDAVEGELIIFRSLTKTWSIAGLRVGYAIARPETLARLSAYRRHWPMGTLQLRAIEAVFDTGIMQLPERRAEMIAQRTEMIEMLTNSGFRCVSSSQAPYILVRPPSTQPEELRMALKAQGIAVRRCDTFPGLEFSYWRLAVRPRDQVQRLLTAIDNIIGAKK
MGSDKIHHHHHHMSLVRLQDVSVRFDNTQILREAFFRLEPRDRVGLIGKNGSGKTTMLQLILDRITPESGTVTVEPGTRIGYFSQFSELNGASTITDVLDGLFSEIKAVEAELASIDTAIAGDPAGAELDRLIARQAELFEDMDRLDGWDYPRRIDKVLTTLGFSDAHRVCAIDELSGGWRNRAALAKILLEDPDVLLLDEPTNFLDVAGVEWLESWFRDFKGAAIIVSHDRKFLDAVVTRIIEVENFHLHEYPGNFGEYIVQKQFRLKSLEQQFVHESELLAFEAEGIADRREAAKAASRGLGNQLAKIKKSRTPRPVDQIVTEIYGGLHVKDVLCRVEGLGKSYGDKALFTGLGFEIRRGNRIVVLGANGSGKSTLLKVLTGEEEADAGVVSWAKGPGFVSYNRMLEELDDADTVSHAVNALPDSLAFSATRKSVNRFLAMFQFSEADLKQKIGNLSGGQKARVAMAQCLLSGASVLLLDEPTNHLDLSSTQVMERALMHFPGAVVVVSHDRFFSEKIANRYLVFGADAALPGEVEVRAA
MGSDKIHHHHHHMSMDKELITAQALAEALHLSVETIWRYTREKKIPCIELGNKQYRYKKDDVIKALSNGSIQESASSYETQEPRKLTYQDYLLLPEEPGYHFEILDGMLIKEPAPNVLHQRVSRRLQRILEDYFWKVDPKGEVFDAPLDVTLHDVNVVQPDLLYVASEQEVIVKDTRIDGPPMLVVEIMSPSTSRKDRLQKRRIYQEARVEHYWLVNPQEKMLECFAWRDGVYALVAGGMEEELVEHPDFPGLSIALRALWNREI
MGSDKIHHHHHHMSNTKKGLATAGYNDDLAKLEEIFLPNFFYKKMQYYFSSSGLISNDVLFVHYTSTESALDIIREKRVLMRNALHMPDRQEVQDGFNIMDGLLSNENNHWVEFRNRIEVVLPGVVDRVMKIYSDHSHGRNDGTYFLSVLEHDESEKELGRLSMWRAFCGQSQPVAMFLRLPALSAVSQVLRIFFNPVLYKGKGQQHLELAEVIKNVENHKSFLERLDPDLVTSAIVSMILINVLCVKHKVFKEEREWRCVYLPKCFTSETSARLIEPGVEEQVGASRNVYKMPLNAAIDPVLSDIDLSKIFDSLIIGPSKSPYATYEVFCDELKKIGVSDVESKVRVTEIPVR
MGSDKIHHHHHHMSPREVAAPHEVKARLYILDTNVLMHDPSALFRFEEHDILLPMIVLEELDQHKKGLSEQARNVRQVSRYLDEMLTDTADLDRGLVLPYAQGRLYFQTAAHQQALPEDLAGGKADHEILAVTLALQNRHPEKDVILVSKDINLRIKGRTLGIRVEDYQNDRALDDVDLLYTGAETLSADFWDLHSRDLDAWQESGRSYYKISGPAIQRWHSNQFIAINVEEGAPEDFAAIVREVRPEHAIIERITDYRSDRHAVWGILARNPEQNFALNLLMDPDIDFVTLLGHAGTGKTLLTLAAALHQIFEQKRYSEVIITRATVPVGDEIGFLPGTEEEKMLPWMGALEDNLEILARGSDEGGSWGRSATQDLINKRIRVKSMSFMRGRTFLEKFVIIDEAQNLTSKEMKTLITRAGPGTKIVCLGNIAQIDTPYLTETTSGLTYVVDRFKDWAYSGHITLRRGERSRLADFANDAL
MGSDKIHHHHHHMSQIISVHSFRGGTGKSNMTANLATTLALQGKRIAIIDTDIQSPGIHVIFGLNEQKMNNCLNDYLWGKCAIEDAAYDVTHLLKGEGGSGKLYLIPSSINPGQITRILREGYDVARLNDGFYEIINALDLDYLLIDTHPGLNEETLLSIAISDILVVILRPDQQDFQGTAVTLEVARKLEVPKMMLVVNKVLSTFDFNALQQEVESTYKTPVAGIVPLSEDIIRLASSNIFCLLYTSHPFSQVVQKITAQIIREQAKVAVRGAF
MGSDKIHHHHHHMSRESALSRASRYFEAGDFQSDLAHLVTYRSESQNTAPEARMECRRYLEEAMLPRLRALGFDCEIIDNPDPTGGPLLIGERREGEALPTILTYGHGDAVLGQEGRWREGLEPWVLVEEGDRLYGRGTADNKGQHLINIAALEAVLAERGHLGFNTRIVIEMSEEVGSVGLPDVFRAYKDRLTADVLIASDGPRLQPDVPTMFMGSRGGTTFDLVVETHEGAHHSGNWGGLLSDPAMILAHALACITDVRGQIKVPEWRPDSLTENVRMALRDLPVAGGQGPAVNPDWGEEDLTPAERVFGWNSFTVLAMVSGVPEAPVNAISGWARATCQLRYVVGTDPEDVVPALRRHLDAHGFESVEIRCHERGFFAATRLDPDHPWAQFVGESIRRTSGALHVLPNLAGSLPNDSFTDILEVPTIWVPHSYRGCSQHAPNEHVLKSVYHDALRVMAGVFWDLGEQGGPLA
MGSDKIHHHHHHMSRNTEATEEVGIWTGGRLNYKEGFFTQLPTDELAKGISEEVVRAISAKRNEPEWMLEFRLNAYRAWLDMDEPHWLKAHYDKLNYQDYSYYSAPSCGNCDDSCVSQPGAVQQTGANTFLSKEVEDAFEQLGVPVREGKEVAVDAIFDSVSVATTYREKLAEQGIIFCSFGEAIHDHPDLVRKYLGTVVPGNDNFFAALNAAVASDGTFIYVPKGVRCPMELSTYFRINAEKTGQFERTILVADEGSYVSYIEGCSAPVRDSYQLHAAVVEVIIHKDAEVKYSTVQNWFPGDNNTGGILNFVTKRALCEGENSKMSWTQSETGSAITWKYPSCILRGDNSIGEFYSVALTSGHQQADTGTKMIHIGKNTRSTIISKGISAGHSQNSYRGLVKIMPTATNARNFTQCDSMLIGADCGAHTFPYVECRNNSAQLEHEATTSRIGEDQLFYCLQRGISEEDAISMIVNGFCKDVFSELPLEFAVEAQKLLAISLEHSVG
MGSDKIHHHHHHMSRTLIIYSTVDGQTKAICDQIAEQCKSDTQPVTMVSLEEAQSVNLSYFDKVIIGASIRYGKHRPELFQYVNRHRAVLNGKKNAFFTVNVVARKPEKNTPETNPYMKKFLQLSLWQPQQLGVFAGKIDYPKYRFFDKFMIRFIMWITKGPTDTSGTYEFTDWDKVQEFAKAFSER
MGSDKIHHHHHHMSSDVRKALDPGTPYSRTLKQYSIDEKLAIISHAKNHGNRAAGREFNVAESSIREWRKNENKLIHNRDAAAARLNAQSSHSSGPARLNNMNNNNNNNHNHSKNNNIQYTQTVFPRRTPDDIVKHIQIAQITQLAMMKMDFTSLARIAPFLQAHQHQQQAQAKPDSISTASSVVGTPSSISSSSSTPPPSTSPVPTSSGSGRRKPRCPMKIVVAESNNPVNIEEIQENIDE
MGSDKIHHHHHHMSSEKLRVAAIDLGTNSFHMVIVEESEEKGIVEIDRVKDMICIGRGSISTKRLDDGAMEAGVATLRNFIVLATQRGVALHNILAFATSAIREADNRDEFIDMVRRETGLKIRVITGKEEAQFIYYGVRNAVTLRDKPDLLFDIGGGSVEFIIADKSKVHLLESRKIGVARMLERFVTTDPVSAHELHLLQQFFAAEMYGGAAEMAHELGVSRAIASSGTAQNIARMIRLGKHADGADVLNQSSFTRQEFESFYRQVIAMDASARRKLTGLDEKRVDLIVPGLILFDTIFRVFGIKDVVISDSALREGMVLHQIALIRGRDGSSQLDIRRQSVMELGYRCNWHKPHSEQVARLALMLFDELHPLHGLKERYRELLEYAAMLHNIGEFISISAHHKHSQYIIMNADLRGFSPTEIDIIGNVARYHRKQPPTERHPLYSQLKPSHRRVVDVLSGILRIANGLERGHRQNVQSITARIDQERIVLEALTQFEPDIELWAACGLKEWLEEVLGKPILIEARVR
MGSDKIHHHHHHMSSEMNGTAPFQDQGATDVSLLEDIVRVTKLQPADEAYSITRRGVAALMAQLLEPGAEARKVSKAVLDDMIAEIDRKLSLQMDEILHHPQFQALESSWRSLHFLVDRTDFRENNRIEFLNATKEELLDDFEDAPEVAKSGLYKTVYSAEYGQFGGKPFGAIIGNYDFGPGAQDIKLLQSLAAVAGMAHAPFMAAASPQFFGCDDFTALPNLKDISSILEGPQYAKWQAFRESEDARYVGLALPRFLLRLPYGEATRPAKCFNYEEQVSDSHDRYCWGNAAFAFATRLTESFANFRWCANIIGPQGGGTVHDLPLHQYQAMGAIQTKIPTEVLISERREFELAEGGFIALTMRKGSDNAAFFSANSVQKPKFFGSSKEGKEAELNYKLGLQLPYMFIVSRLAHYLKVIQREHIGTWKERGDLENELNLWIRQYVSEMDNPMPGVRSRRPLRQAEVTVEEVPGEPGWYRVGLKVTPHFKYMGAYFTLSLVGKLDKE
MGSDKIHHHHHHMSSFSLDFSLGTFQPLAAKMRPQTLKQYCGQEHLIGAGKPLYKAIENGHIHSMIFWGPPGTGKTTLAEIIAQQIHAQVERISAVTAGVKEIRESIERAKQNRLMGQQTILFVDEVHRFNKTQQDAFLPHIENGTIIFIGATTENPSFELNNALLSRVKVYILKPLTTSNIVTVLQNAIQDAEQGLGKERLIFAENVLETLAEYVNGDARLALNCLELMVDMADETEKGKLINHHLLTEVLGERQARFDKQGDRFYDLISALHKSIRGSAPDAALYWYARIITAGGDPLYVARRLLAIASEDVGNADPRAMQVALAAWDCFTRVGAAEGERAIAQAIVYLAVAPKSNAVYVAFKQAKKLAKEMPDYDVPVHLRNAPTHLMKELGYGAEYRYAHDEPNAYAAGEIYFPEELKNTKFYFPTDRGLEIQLKEKLARLHNLDEQSTKKRYK
MGSDKIHHHHHHMSSGLYLYGIFPDPIPETVTLQGLDSQLVYSQIIDGFTFLYSEAKQEKYLASRRNLISHEKVLEQAMHAGFRTLLPLRFGLVVKNWETVVTQLLQPYKAQLRELFQKLAGRREVSVKIFWDSKAELQAMMDSHQDLKQKRDQMEGKALSMEEVIHIGQLIESNLLSRKESIIQVFFDELKPLADEVIESDPMTEDMIYNAAFLIPWENESIFSQQVESIDHKFDERLRIRYNNFTAPYTFAQIS
MGSDKIHHHHHHMSSSHSKNGNENETAKGITRISVSGYKSLYDECSIEIRPLTILAGANSSGKSSIIQPLLLMKQTLEATYDPGALLLNGANVKFTSAEQLISHLPGKERIQRFVIGIEIEHNQSVKNIFTKFPRQPIDLQEMIVEKNDSKVSLSTDTLPADVVNILPKQYLDFYKSIQDTDLKGKFFFIISRNRCFLEFELYDFINQKKLSSQSFLFNYITPDHTELFGRQIRKIIHIPGLRGNPERNYKTTAVGDAFPGTFDNYVASIIHRWQRPRDKRLQELNNALVSLGLTSKVQAKQLDDTQVELRVARLTRNSDNEKDMVSIADVGFGVSQTLPVLVALLVAEPGQLVYIEQPEIHLHPRAQVAMAEILANAAKRGVKIVVETHSDRLILATQSLVAEGNLSPDLVKLHWFTRQEDGITKINSADLDETGAFGDWPEDFGDVSLQLENRYLSAAEARLIQGTHGG
